In patent US9580487B2, “Method of treating stomach or bowel-related disorders by administering glucagon-like-peptide-2 (GLP-2) analogues” (Zealand Pharma A/S, priority 2005, dated 2017):

Columns and labels:
male C57BL mice [1] = assay: Screening for intestinal growth effects (small intestine and colon mass relative to body weight, small intestine-colon sensitivity index); format: in vivo
Method: The ability of the present compounds to stimulate intestinal growth was determined in male C57BL mice. Individual groups (n=6) of mice were given 30 nmol/kg of each compound, s.c, twice daily for ten consecutive days. For comparison purposes other groups of animals were given either an equimolar dose of [Gly2]GLP-2 (SEQ ID NO:54) or vehicle (phosphate buffered saline, pH 7.4) in the same dosing regimen. Twenty-four hours after the last dose of compound had been given the mice were sacrificed and the small intestine (from the pylorus to the cecum) and the colon (intestine distal to cecum) was emptied and weighed. To correct for slight difference in body weight (BW), the organ mass of the small intestine (SI) and colon were expressed relative to BW. The non-selective reference compound [Gly2]GLP-2 (SEQ ID NO:54) has been reported to stimulate gastrointestinal growth in both esophagus, stomach, small intestine and colon and to evaluate differences in growth pattern induced by compounds, the small intestine-colon sensitivity index of compound X was calculated as:
(SI/Colon)X/(SI/Colon)[Gly2]GLP-2%
Compounds with a small intestine-colon sensitivity greater than or equal to 1.05 were considered relatively selective for the small intestine (Table 15).
Compounds with a small intestine-colon sensitivity smaller than or equal to 0.95 were considered relatively selective for the colon (Table 15).

male C57BL mice [2] = assay: Dose-response effect on intestinal growth (SI mass, SI-Colon Sensitivity Index, colon and stomach mass); format: in vivo; conditions: 5-405 nmol/kg s.c. b.i.d. for three days, vs vehicle
Method: Values are means±SEM. *: P<0.05 relative to the equimolar dose of [Gly2]GLP-2 (SEQ ID NO:54).
FIG. 2 is a set of graphs showing full dose-response data of four small intestine selective compounds (compound nos. 1846 (SEQ ID NO:34), 1855 (SEQ ID NO:43), 1848 (SEQ ID NO:36), 1858 (SEQ ID NO:46)) on the Small Intestine (SI)-to-Colon Sensitivity Index mice relative to the non-selective reference compound [Gly2]GLP-2 (SEQ ID NO:54). Compounds were administered by subcutaneous injection b.i.d. for three days in C57BL mice at the following doses: 0 (vehicle), 5, 15, 45, 135, 405 nmol/kg (n=6/dose group). Responses at each dose level were compared with responses obtained at the same dose level in pair-treated mice treated with the non-selective reference compound [Gly2]GLP-2 (SEQ ID NO:54). The SI-Colon Sensitivity Index was calculated as SI-mass relative to colon mass and the Sensitivity Index at each dose level was normalized to the response observed with the non-selective reference compound [Gly2]GLP-2 (SEQ ID NO:54). […] Values are means±SEM. *: P<0.05 relative to the equimolar dose of [Gly2]GLP-2.
FIG. 4 is a set of graphs showing full dose-response data of three small intestine selective compounds (compound nos. 1857 (SEQ ID NO:45), 1820 (SEQ ID NO:10), and 1849 (SEQ ID NO:37)) on the Small Intestine (SI)-to-Colon Sensitivity Index mice relative to the non-selective reference compound [Gly2]GLP-2 (SEQ ID NO:54). Compounds were administered by subcutaneous injection b.i.d. for three days in C57BL mice at the following doses: 0 (vehicle), 5, 15, 45, 135, 405 nmol/kg (n=6/dose group). Responses at each dose level were compared with responses obtained at the same dose level in pair-treated mice treated with the non-selective reference compound [Gly2]GLP-2 (SEQ ID NO:54). The SI-Colon Sensitivity Index was calculated as SI-mass relative to colon mass and the Sensitivity Index at each dose level was normalized to the response observed with the non-selective reference compound [Gly2]GLP-2 (SEQ ID NO:54). […] Values are means±SEM. *: P<0.05 relative to the equimolar dose of [Gly2]GLP-2 (SEQ ID NO:54).
Compounds were administered by subcutaneous injection b.i.d. for three days in C57BL mice at the following doses: 0 (vehicle), 5, 15, 45, 135, 405 nmol/kg (n=6/dose group). […] Values are means±SEM. *: P<0.05 relative to the vehicle.
The dose-response effect of 1820 (SEQ ID NO:10), 1855 (SEQ ID NO:43), ZP1846 (SEQ ID NO:34), 1858 (SEQ ID NO:46), 1849 (SEQ ID NO:37), 1848 (SEQ ID NO:36), and 1857 (SEQ ID NO:45) on small intestinal mass was determined in male C57BL mice. Individual groups (n=6) of mice were given 5, 15, 45, 135 or 405 nmol/kg of each compound, s.c, twice daily for three consecutive days. For comparison purposes other groups of animals were given either equimolar doses of [Gly2]GLP-2 (SEQ ID NO:54) or vehicle (phosphate buffered saline, pH 7.4) in the same dosing regimen. Twenty-four hours after the last dose of compound had been given the mice were sacrificed and the small intestine (from the pylorus to the cecum emptied and weighed to determine the effect on small intestinal mass.

[3] = Tentative identification of major degradation products in stress test samples by LC-MS; format: physicochemical; conditions: 3 days at 40° C. in 0.5% H2O2
Method: Analytical LC-MS analyses were performed on an Agilent Technologies 1100 HPLC instrument consisting of an on-line degasser, quaternary gradient pump, an auto sampler, a column oven, an UV detector. The HPLC instrument was interfaced with a Micromass LCT (ESI-TOF) mass spectrometer under control of Masslynx 3.5 software, from MicroMass, UK.
Major degradation products in the stress test samples were tentatively identified by the LC-MS method. Any isomers to the parent compounds and minor degradation products were not observed by this analytical LC-MS method.

[4] = system: colonic neoplasms in mice; conditions: cited from earlier work
[5] = Chemical stability testing: incubation in HCl, NaOH, H2O2 or NH4HCO3 at 40° C., remaining purity by RP-HPLC; format: physicochemical; conditions: 40° C., 2 mg/ml, relative to the purity at T=0
Method: The GLP-2 analogues were dissolved in purified water and subsequently diluted in solutions containing HCl, NaOH, H2O2 or NH4HCO3. The solutions were incubated at 40° C. to produce hydrolysis, deamidation and oxidation products. The samples were analyzed by RP-HPLC and the percentage of remaining intact compound was determined as a measure for the relative stability. The major degradation products were tentatively identified by LC-MS.
The GLP-2 analogues tested and the reference Gly^2-GLP-2, ZP1559 (SEQ ID NO:54), were dissolved in water and subsequently diluted into solutions containing HCl, NaOH, H2O2 or NH4HCO3. The samples were incubated at 40° C. to generate hydrolysis, deamidation and oxidation products, respectively. The compounds were analysed by RP-HPLC for purity of the original main peak and by LC-MS for confirmation of the identity by mass of the main peak and major degradation products.
The GLP-2 analogues were first dissolved in MQW to a concentration of 4 mg/ml and then further diluted in the stress solutions at a 1:1 ratio (e.g. 125 μl plus 125 μl). The final concentrations were 2 mg/ml of the GLP-2 analogues for stress conditions with 0.1 M HCl, 0.01M NaOH, 0.1 M NH4HCO3 and 0.5% H2O2, respectively.
The solutions were incubated at 40° C. in the dark and then diluted in Eluent A to a concentration of 0.5 mg/ml (addition of 750 μl) prior to analyses by RP-HPLC and by LC-MS.
The RP-HPLC analyses were performed on an Agilent Series 1100 HPLC system under control of the ChemStation (Revision A.08.03 [847]) software from Agilent Technologies, Inc. The raw data and the results of the peak integration were deposited on the ChemStore C/S server by the use of Agilent Technologies Revision B01.03 software.
The results are shown in Table 9 as the compound purity measured by RP-HPLC after incubation under stress conditions. This purity is a measure for the remaining intact compound after incubation in stress solutions, relative to the purity measured a T=0.

## H-[Gly2]hGLP-2-OH [Compound 1559, reference compound]
Male C57BL mice [1]; 30 nmol/kg s.c. twice daily, ten days, relative to [Gly2]GLP-2
  Preferential growth of small intestine versus colon (small intestine-colon sensitivity): without preferential growth in small intestine or colon
Male C57BL mice [1]; male C57BL mice, 30 nmol/kg s.c. twice daily for ten days
  colon mass relative to body weight, % [Gly2]GLP-2: 100 % [Gly2]GLP-2
Male C57BL mice [1]; male C57BL mice, 30 nmol/kg s.c. twice daily for ten days, third value column
  small intestine-colon sensitivity index, (SI/Colon)X/(SI/Colon)[Gly2]GLP-2 %: 100 % [Gly2]GLP-2
Male C57BL mice [2]
  Growth stimulation of small intestine, colon and stomach mass: produced dose-dependent growth stimulation in small intestine, colon and stomach
[3]
  Intact product found by LC-MS after H2O2 stress: No product intact
[4]
  Growth of colonic neoplasms: accelerate the growth of colonic neoplasms in mice
[5]; RP-HPLC
  Purity H2O2 0.5% 3 days: <5%
  Purity HCl 0.1M 12 days: 57%
[5]; pH 8, RP-HPLC
  Purity NH4HCO3 0.1M 6 days: 66%
